Numbering of substitutions follows the chain as printed.
T1: Histidine-tagged cynomolgus FAP (cynomolgus monkey (Macaca fascicularis), UniProt Q12884 30-760 (human entry))
T1 construct: the tie between the two is by these matching words only; also called cFAP; cyno FAP
T1 sequence: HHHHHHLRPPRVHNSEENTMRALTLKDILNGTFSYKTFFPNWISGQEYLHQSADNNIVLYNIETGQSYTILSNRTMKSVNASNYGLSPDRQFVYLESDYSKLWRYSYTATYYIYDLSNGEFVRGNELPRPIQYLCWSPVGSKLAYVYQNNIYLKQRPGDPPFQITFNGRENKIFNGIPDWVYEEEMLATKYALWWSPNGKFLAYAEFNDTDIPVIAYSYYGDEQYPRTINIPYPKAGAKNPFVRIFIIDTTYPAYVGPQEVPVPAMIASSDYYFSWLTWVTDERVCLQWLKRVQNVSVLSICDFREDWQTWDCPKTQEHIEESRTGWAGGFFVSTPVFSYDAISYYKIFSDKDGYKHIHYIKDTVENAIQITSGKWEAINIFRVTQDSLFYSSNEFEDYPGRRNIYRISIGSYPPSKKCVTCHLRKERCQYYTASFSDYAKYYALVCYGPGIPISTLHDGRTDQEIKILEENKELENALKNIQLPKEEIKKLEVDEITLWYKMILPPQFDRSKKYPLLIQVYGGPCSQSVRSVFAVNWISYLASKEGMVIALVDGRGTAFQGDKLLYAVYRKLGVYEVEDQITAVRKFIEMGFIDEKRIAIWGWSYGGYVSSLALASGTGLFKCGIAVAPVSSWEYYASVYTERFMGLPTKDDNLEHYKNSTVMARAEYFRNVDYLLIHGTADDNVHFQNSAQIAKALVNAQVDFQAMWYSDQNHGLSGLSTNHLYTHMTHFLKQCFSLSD

T2: Recombinant human FAP (fibroblast activation protein) (human, UniProt Q12884 26-760)
T2 construct: Bought soluble recombinant protein; Chemically biotinylated for the HTRF screen; also called hFAP; biotinylated human FAP
T2 sequence (looked up): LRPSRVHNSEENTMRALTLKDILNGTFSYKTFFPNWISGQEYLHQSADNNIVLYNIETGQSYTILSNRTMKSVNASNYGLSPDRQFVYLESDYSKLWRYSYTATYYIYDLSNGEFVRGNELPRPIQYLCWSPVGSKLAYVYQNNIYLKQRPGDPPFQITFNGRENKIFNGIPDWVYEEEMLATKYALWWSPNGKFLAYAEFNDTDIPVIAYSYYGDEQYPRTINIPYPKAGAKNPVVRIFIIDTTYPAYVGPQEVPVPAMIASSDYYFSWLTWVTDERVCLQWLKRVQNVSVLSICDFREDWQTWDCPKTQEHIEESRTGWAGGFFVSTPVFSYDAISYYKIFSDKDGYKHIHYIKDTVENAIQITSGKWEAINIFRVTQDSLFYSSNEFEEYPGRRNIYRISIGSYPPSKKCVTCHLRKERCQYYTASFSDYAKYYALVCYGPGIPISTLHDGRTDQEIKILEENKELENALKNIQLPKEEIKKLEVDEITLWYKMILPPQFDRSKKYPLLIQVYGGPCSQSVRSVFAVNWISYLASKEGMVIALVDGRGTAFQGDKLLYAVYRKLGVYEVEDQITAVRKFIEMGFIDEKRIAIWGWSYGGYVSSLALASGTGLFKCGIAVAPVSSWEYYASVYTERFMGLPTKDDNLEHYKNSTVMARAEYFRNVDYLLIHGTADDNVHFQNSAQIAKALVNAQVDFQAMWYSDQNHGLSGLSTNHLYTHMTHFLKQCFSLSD

B1: DARPin® protein #34 (designed binder)
chain: MRGSHHHHHHGSDLGKKLLEAARAGQDDEVRELLKAGADVNAKDVLGWTPLHLAAFEGHLEIVEVLLKAGADVNAKDKKGWTPLQLAARTGHLEIVEVLLKAGADVNAKDHIGATPLHLAAWQGHPEIVEVLLKAGADVNAQDKSGKTPADLAADAGHEDIAEVLQKAA
B2: DARPin® protein #36 (designed binder)
chain: B1 chain with E32I, K35A, A168L, A169N
B3: DARPin® protein #35 (designed binder)
chain: MRGSHHHHHHGSDLGEKLLVAALYGQDDEVRELLKAGADVNAKDQWGLTPLHKAALQGHLEIVEVLLKAGADVNAKDERGHTPLHWAARFGHLEIVEVLLKAGADVNAQDQKGYTPADLAALWGHEDIAEVLQKAA
B4: DARPin® protein #37 (designed binder)
chain: B3 chain with E32I, K35A, A135L, A136N
B5: DARPin® protein #38 (designed binder)
chain: MRGSHHHHHHGSDLGKKLLEAARAGQDDEVRELLKAGADVNAKDEVGRTPLHLAAQIGHLEIVEVLLKAGADVNAKNRWGVTPLHVAAWVGHLEIVEVLLKAGADVNAKDQQGATPLHLAAIRGHLEIVEVLLKAGADVNAQDKSGKTPADLAADAGHEDIAEVLQKLN
B6: DARPin® protein #39 (designed binder)
chain: MRGSHHHHHHGSDLGKKLLEAARAGQDDEVRELLKAGADVNAKDEWGKTPLHLAAIRGHLEIVEVLLKAGADVNAKDTHGITPLHLAAFVGHLEIVEVLLKAGADVNAKDYLGRTPLHIAAAKGHLEIVEVLLKAGADVNAQDKSGKTPADLAADAGHEDIVEVLQKLN

Target: T1, Histidine-tagged cynomolgus FAP
Assay: SPR (ProteOn), cynomolgus FAP immobilized on GLC chip
Protocol: (§1) Briefly, cyno FAP was diluted in 10 mM Na-acetate pH5.3 buffer and covalently immobilized on a GLC chip (BioRad) to a level of around 2000 resonance units (RU). The interaction of ankyrin repeat protein and cFAP was then measured by injecting 200 μl running buffer (PBS, pH 7.4 containing 0.005% Tween 20®) containing serial dilutions of ankyrin repeat proteins covering a concentration range between 25 nM and 0.3 nM (on-rate measurement), followed by a running buffer flow for at least 25 minutes at a constant flow rate of 100 μl/min (off-rate measurement). The regeneration was performed using 15 μl of 10 mM Glycine pH 2 followed by 15 μl of 124 mM H₃PO₄. The signals (i.e. resonance unit (RU) values) of the interspots and a reference injection (i.e. injection of running buffer only) were subtracted from the RU traces obtained after injection of ankyrin repeat protein (double-referencing). Based on the SPR traces obtained from the on-rate and off-rate measurements, the on- and off-rate of the corresponding ankyrin repeat protein—FAP interaction was determined.
(§2) Dissociation constants (KD) were calculated from the estimated on- and off-rates using standard procedures known to the person skilled in the art. […] Table 4 provides the KD values on cFAP and hFAP of some of the selected ankyrin repeat proteins as examples.

How did the Kd turn out when B1 was run?
The Kd was 0.071 nM.

How did the Kd turn out when B2 was run?
Its Kd is 0.101 nM.

For B3, which Kd is on record?
The Kd was 0.15 nM.

How did the Kd turn out when B4 was run?
The Kd was 0.112 nM.

How did the Kd turn out when B5 was run?
The Kd was 0.047 nM.

B6 was tested. Which Kd did it give?
Its Kd is 0.155 nM.

Target: T2, Recombinant human FAP (fibroblast …)
Assay: SPR (ProteOn), human FAP immobilized on GLC chip
Protocol: as §1, with “Briefly, human” for “Briefly, cyno”, “Na-acetate pH 5.3” for “Na-acetate pH5.3”, “and hFAP” for “and cFAP”, “between 30” for “between 25”, “and 0.5” for “and 0.3”
as §2

B1 was tested. Which Kd did it give?
The Kd was 0.177 nM.

With B2 as the binder, how does the Kd read?
Its Kd is 0.118 nM.

Which Kd does the source give for B3 here?
Its Kd is 0.21 nM.

B4 was tested. Which Kd did it give?
Its Kd is 0.14 nM.

B5 was tested. Which Kd did it give?
The Kd was 0.058 nM.

How did the Kd turn out when B6 was run?
The Kd was 0.22 nM.

Target: T2, Recombinant human FAP (fibroblast …)
Assay: SPR (ProteOn), human FAP immobilized on GLC chip
Remark: another data set of the same source
In short: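 Human FAP amine-coupled (pH 5.3 acetate) to about 2000 RU. Ankyrin repeat proteins injected at 0.5–30 nM in PBS pH 7.4 with 0.005% Tween 20 at 100 μl/min, then ≥25 min dissociation, with double referencing. KD calculated from the fitted on- and off-rates.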

B1 was tested. Which Kd did it give?
Its Kd is 0.177 nM.

With B2 as the binder, how does the Kd read?
The Kd was 0.118 nM.

With B3 as the binder, how does the Kd read?
The Kd was 0.21 nM.

How did the Kd turn out when B4 was run?
Its Kd is 0.14 nM.

For B5, which Kd is on record?
The Kd was 0.058 nM.

For B6, which Kd is on record?
Its Kd is 0.22 nM.

Source: US20220242973A1 (Molecular Partners, published 2022)
